Source: patent US6884870

How the values were obtained:
[1] = molecular target: C. elegans caspase CED-3 (C. elegans) (UniProt P42573); experiment: cell-based or functional assay
[2] = molecular target: caspase 7 lacking the N-terminal 53 amino acid prodomain (caspase 7^53) (human) (UniProt P55210); experiment: cell-based or functional assay
Sequence of UniProt P55210 (P55210 54-303 limits assumed): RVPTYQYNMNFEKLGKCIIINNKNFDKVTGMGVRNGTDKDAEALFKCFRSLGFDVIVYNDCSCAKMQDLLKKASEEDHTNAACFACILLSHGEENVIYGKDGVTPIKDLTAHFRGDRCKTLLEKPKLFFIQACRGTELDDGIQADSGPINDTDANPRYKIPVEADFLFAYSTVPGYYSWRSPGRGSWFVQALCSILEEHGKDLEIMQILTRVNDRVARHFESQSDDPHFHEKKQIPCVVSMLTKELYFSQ

Sequence of UniProt P42573 (P42573 whole entry): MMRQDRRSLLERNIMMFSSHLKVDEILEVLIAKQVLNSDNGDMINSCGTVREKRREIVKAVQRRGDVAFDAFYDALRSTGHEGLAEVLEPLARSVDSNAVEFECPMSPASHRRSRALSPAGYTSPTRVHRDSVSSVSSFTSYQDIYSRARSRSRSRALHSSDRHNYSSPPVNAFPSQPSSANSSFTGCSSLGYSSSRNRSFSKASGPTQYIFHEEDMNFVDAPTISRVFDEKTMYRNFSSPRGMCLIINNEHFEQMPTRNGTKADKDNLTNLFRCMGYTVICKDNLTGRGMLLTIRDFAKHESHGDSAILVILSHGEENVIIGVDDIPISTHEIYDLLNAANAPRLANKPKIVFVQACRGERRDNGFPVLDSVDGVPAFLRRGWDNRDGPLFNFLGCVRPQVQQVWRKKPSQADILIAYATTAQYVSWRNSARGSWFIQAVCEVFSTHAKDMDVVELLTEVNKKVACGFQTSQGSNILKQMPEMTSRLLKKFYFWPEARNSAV

**Q.** For “baculovirus p35 (from UniProt P08160 1-299)”, which beta-gal activity (ONPG assay) of the caspase-dependent CLBDG6 LexA/lacZ reporter in yeast (fold inhibition) [1] is on record?
**A.** The beta-gal activity (ONPG assay) of the caspase-dependent CLBDG6 LexA/lacZ reporter in yeast (fold inhibition) was 5.

**Q.** And the beta-gal activity (ONPG assay) of the caspase-dependent CLBDG6 LexA/lacZ reporter in yeast (fold inhibition) [2]?
**A.** Its beta-gal activity (ONPG assay) of the caspase-dependent CLBDG6 LexA/lacZ reporter in yeast (fold inhibition) is 5.

**Q.** Which beta-gal activity (ONPG assay) of the caspase-dependent CLBDG6 LexA/lacZ reporter in yeast (fold inhibition) [2] does the source give for “mouse IAP MIHA (from UniProt Q60989 1-496)” here?
**A.** Its beta-gal activity (ONPG assay) of the caspase-dependent CLBDG6 LexA/lacZ reporter in yeast (fold inhibition) is 2.
